Columns and labels:
[1] = system: Th Ser40 phosphorylation (cGMP-derived signaling) in HEK cells; assay: Ser40 phosphorylation of Th in HEK cells transfected with Th (western blotting, ratio P-Ser40/Total Th); assay type: cell-based, mouse Th in HEK cells; conditions: 500 μM, 1 hour, 48 hours post-plating, n=6, p<0.0001
Procedure: FIG. 3. HEK cells are a suitable model to study GUCY2C-induced Ser40 phosphorylation. (A) RT-qPCR data from intact HEK extracts. Input material was 10 ng of total RNA. Cp corresponds to the cycle number in which the expression starts to be considered positive. (-) represents the water control, which is negative in every case. (B) HEK cultures were transfected with Th and treated with a cGMP analogue 48 hours post-plating. Changes in Ser40 phosphorylation were studied. The graph represents the statistical analysis (n=6; Mean±SEM). Unpaired Student's t-test (p-value: ****<0.0001). Hereon, ‘Fold Change’ corresponds to the ratio P-Ser40/Total Th.
HEK cells were maintained in 100-mm Petri dishes and grown in DMEM medium supplemented with L-glutamine, penicillin-streptomycin (Pen&Strep) and 10% heat-inactivated fetal bovine serum (HIFBS). Growing conditions were 37° C. and 5% CO2. For every-other-day passages, HEK cultures were split at a 1:3 dilution. From Friday to Monday, the split proportion was doubled for all cell lines. For passaging, cultures were rinsed with PBS and incubated with 1 mL of trypsin during 5 minutes. Cells were resuspended in growth medium and finally split to the proper dilution. The experiments were performed in 12-well plates. For immunocytochemistry analysis, sterile 18-mm coverslips were added prior to the plating. 500 μL of cell resuspension was seeded in each well. […]

[2] = injected into the blood stream; cited from earlier work
[3] = target: T1, GUCY2C R792S mutant (Homo sapiens, UniProt P25092, R792S); assay: Ser40 phosphorylation in HEK cells co-transfected with Th and GUCY2C gain-of-function mutant R792S versus wt; assay type: cell-based; conditions: HEK cells co-transfected with Th and wt or R792S GUCY2C; FIG. 5B
T1 construct: expressed in transfected cells; host or cells: HEK cells
T1 sequence (P25092 24-1073 R792S): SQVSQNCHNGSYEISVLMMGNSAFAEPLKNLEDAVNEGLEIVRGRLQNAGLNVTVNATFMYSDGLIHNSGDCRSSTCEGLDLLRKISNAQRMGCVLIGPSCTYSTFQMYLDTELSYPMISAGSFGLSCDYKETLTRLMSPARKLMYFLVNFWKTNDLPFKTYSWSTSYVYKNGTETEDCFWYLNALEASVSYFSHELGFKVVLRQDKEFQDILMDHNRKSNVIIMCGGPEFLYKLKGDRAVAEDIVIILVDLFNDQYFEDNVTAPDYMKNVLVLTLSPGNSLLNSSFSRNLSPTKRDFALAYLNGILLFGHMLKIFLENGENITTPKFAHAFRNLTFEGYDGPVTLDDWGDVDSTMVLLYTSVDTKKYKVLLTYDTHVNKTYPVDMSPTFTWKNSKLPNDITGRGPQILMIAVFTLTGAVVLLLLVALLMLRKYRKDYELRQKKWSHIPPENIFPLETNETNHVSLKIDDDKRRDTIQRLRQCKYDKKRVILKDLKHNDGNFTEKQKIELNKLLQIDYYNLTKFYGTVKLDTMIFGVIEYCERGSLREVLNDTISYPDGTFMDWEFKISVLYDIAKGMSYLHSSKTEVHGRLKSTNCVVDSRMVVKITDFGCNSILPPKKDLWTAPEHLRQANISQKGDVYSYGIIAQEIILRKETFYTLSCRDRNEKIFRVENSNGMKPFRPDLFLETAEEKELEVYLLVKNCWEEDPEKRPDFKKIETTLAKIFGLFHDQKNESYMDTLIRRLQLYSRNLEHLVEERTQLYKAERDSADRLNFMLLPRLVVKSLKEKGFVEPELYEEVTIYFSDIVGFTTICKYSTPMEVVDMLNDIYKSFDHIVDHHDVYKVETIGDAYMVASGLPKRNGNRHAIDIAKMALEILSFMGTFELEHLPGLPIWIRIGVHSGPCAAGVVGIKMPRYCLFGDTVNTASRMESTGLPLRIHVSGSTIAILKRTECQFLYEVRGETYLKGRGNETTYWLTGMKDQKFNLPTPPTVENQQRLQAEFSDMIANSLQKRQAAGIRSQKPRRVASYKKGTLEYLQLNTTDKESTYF
Procedure: (§1) FIG. 5. The increase in Ser40 phosphorylation is proportional to the produced amount of cGMP upon GUCY2C stimulation. (A) HEK cultures were treated with guanylin, in the presence or absence of IBMX. […] Unpaired Student's t-test (p-values: ****<0.0001, **<0.01, *<0.05). (B) HEK cells were co-transfected with Th and either the wt GUCY2C or a gain-of-function mutant (R792S). Ser40 phosphorylation was studied following guanylin treatment (G). […] Unpaired Student's t-test (p-values: ***<0.001, **<0.01).
HEK cells were transfected using the calcium-phosphate method. 12-well plates were refreshed with 500 μL of growth medium before transfection. […] The plasmid mixture was taken into a final concentration of 250 mM CaCl2 in a total volume of 110 μL. A complementary tube was filled with 110 μL of HEPES-buffered saline 2× (HEBS 2×: 1.5 mM Na2HPO4, 50 mM HEPES pH 7.05, 280 mM NaCl). […]
Up to 35 μL of sample was loaded in each slot and run in the presence of tris-glycine buffer and 0.1% SDS. […] After additional washings during 1 hour, blots were exposed to an enhanced chemiluminescence solution and the signal was detected using an Odyssey imager (LI-COR). […] For graph quantifications, ‘Fold Change’ represents the ratio P-Ser40/Total Th. Statistical comparisons between pair of groups correspond to unpaired Student's t-tests, as calculated with GraphPad Prism. […]

[4] = target: T2, human GUCY2C (Homo sapiens, UniProt P25092); assay: Ser40 phosphorylation of Th in HEK cells co-transfected with Th and GUCY2C (western blotting, ratio P-Ser40/Total Th); assay type: cell-based; conditions: guanylin 10 μM, 1 hour; for P-Ser40 levels (Fold Change = ratio P-Ser40/Total Th): HEK cells co-transfected with Th and GUCY2C, uroguanylin 1 μM, p<0.01
T2 construct: expressed in transfected cells; host or cells: HEK cells
T2 sequence (P25092 24-1073): as the sequence (P25092 24-1073 R792S) above, with S769R counted along it
Procedure: FIG. 4. GUCY2C activation increases Ser40 phosphorylation. Immunocytochemistry images (A) and western blotting analysis (B) of HEK cultures transfected with Th or Th+GUCY2C. (C) Co-transfected HEK cells were treated with guanylin (G) or uroguanylin (UroG) and changes in Ser40 phosphorylation were studied. The graph represents the statistical analysis (n=3 for Control, n=6 for Guanylin, n=9 for Uroguanylin; Mean±SEM). Unpaired Student's t-test (p-value: **<0.01).
as §1
HEK cells were maintained in 100-mm Petri dishes and grown in DMEM medium supplemented with L-glutamine, penicillin-streptomycin (Pen&Strep) and 10% heat-inactivated fetal bovine serum (HIFBS). Growing conditions were 37° C. and 5% CO2. For every-other-day passages, HEK cultures were split at a 1:3 dilution. From Friday to Monday, the split proportion was doubled for all cell lines. For passaging, cultures were rinsed with PBS and incubated with 1 mL of trypsin during 5 minutes. Cells were resuspended in growth medium and finally split to the proper dilution. The experiments were performed in 12-well plates. For immunocytochemistry analysis, sterile 18-mm coverslips were added prior to the plating. 500 μL of cell resuspension was seeded in each well. If experiments were to be performed 48 hours after the plate preparation, 1:5 was the seeding ratio for HEK cells. When the experiments took place 96 hours post-plating, 1:7 was the working dilution for HEK cells. Unless otherwise stated, HEK cultures were processed 96 hours post-plating.
HEK cells were transfected using the calcium-phosphate method. […]

Compound: Nc1nc2c(nc(Br)n2[C@@H]2O[C@@H]3COP(=O)(O)O[C@H]3[C@H]2O)c(=O)[nH]1 [8-Bromo-cGMP]
- P-Ser40 levels (Fold Change = ratio P-Ser40/Total Th) [1]: small but significant increase in P-Ser40 levels

Compound: guanylin: natural agonistic ligand of GUCY2C; a 15 amino acid polypeptide (PGTCEICAYAACTGC)
- passage of the blood-brain barrier [2]: rapidly enters the brain
- boost in Ser40 phosphorylation upon guanylin treatment, R792S mutant compared to wt receptor [3]: 1.5 fold
- P-Ser40 levels (Fold Change = ratio P-Ser40/Total Th) [4]: increase P-Ser40 levels

Compound: CC(C)Cn1c(=O)n(C)c(=O)c2[nH]cnc21 [IBMX, 3-isobutyl-1-methylxanthine]
- Ser40 phosphorylation with PDE inhibition ([4]; HEK cultures, IBMX 100 μM, FIG. 5A): potentiated the increase in Ser40 phosphorylation as compared to guanylin administration

Compound: uroguanylin: natural agonistic ligand of GUCY2C; a 16 amino acid peptide (NDDCELCVNVACTGCL)
- P-Ser40 levels (Fold Change = ratio P-Ser40/Total Th) [4]: increase P-Ser40 levels

Source: US20200009213A1, “Specific Increase of Dopamine Synthesis THrough Targeting of the Guanylate Cyclase 2C Receptor in the Treatment of Parkinson's Disease” (Universiteit van Amsterdam, priority 2017, published 2020)
